Assay results: patent publication US20220235118A1 (IMMUNOME, published 2022)

B1: PR194_00232 (antibody, V domains shown)
VH: EVQLVESGGGLVQPGGSLRLSCSASGFTVSSNYMSWVRQAPRKGLEWVSVIYAGGSTFYADSVKGRFTISRDNSKNTLLLQMNSLRAEDTAVYYCARDRGGYLDYWGQGTLVTVSS
VL: DIQMTQSPSSLSASVGDRVTITCRASQGISNYLAWYQQKPGKVPKLLIYAASTLQSGVPSRFSGSGSGTDFTLTISSLQPEDVATYYCQKYNSAPGLTFGGGTKVEIK
notes: also called IMM20190; PR194_00190
B2: PR200_00622 (antibody, V domains shown)
VH: QVQLVESGGGVVQPGRSLRLSCTASGFTFSTYGMHWVRQAPGKGLEWVAVISYDGSSKHYAESVKGRFTISRDNSNNTLYLQMNRLRAEDTAVYYCARDGQPPGWGNYFDYWGQGTLVTVAS
VL: SYVLTQPPSVSVAPGKTARITCGGNGIGSKSVYWYQQKPGQAPEVVVYDDSDRPSGIPERFSGSNSGNTATLTISRVEAGDEADYYCQVWDSSSDPWVFGGGTKLTVL
notes: also called IMM20253; PR200_00253
B3: PR193_00018 (antibody, V domains shown)
VH: EVQLVESGGGLVQPGGSLRLSCSASGFTFSSFWMSWVRQAPGKGLEWVATIREDGSEKYYVDSVKGRFSISRDNAKNSLYLQMNSLRAEDTAVYYCARSKWLRGSFDYWGQGTLVTVSS
VL: NFMLTQPHSVSESPGKTVTISCTRRSGSIASNYVQWYQQRPGSAPTTVIYEDNQRPSGVPDRFSGSIDSSSNSASLTISGLQTEDEADYYCQSYDSSNPPGASWVFGGGTKLTVL
notes: also called IMM20184; IMM200184

Key:
[1] = molecular target: T1, SARS-CoV-2 Spike S1 domain ΔHV69/70, ΔY144, N501Y, A570D, D614G, P681H (SARS-CoV-2, UniProt P0DTC2 16-685); test: HTRF, soluble S1 construct
T1 construct: domain: S1; also called U.K. (B.1.1.7); DHV69/70, DY144, N501Y, A570D, D614G, P681H

[2] = molecular target: T2, SARS-CoV-2 Spike S1 domain A222S, D614G (SARS-CoV-2, UniProt P0DTC2 16-685); test: HTRF, soluble S1 construct
T2 construct: domain: S1; also called Spanish (A222S, D614G)

[3] = molecular target: T3, SARS-CoV-2 Spike S1 domain ΔHV69/70, Y453F, D614G (SARS-CoV-2, UniProt P0DTC2 16-685); test: HTRF, soluble S1 construct
T3 construct: domain: S1; also called Denmark (ΔHV69/70, Y453F, D614G); DHV69/70, Y453F, D614G

[4] = molecular target: Spike protein D614G (SARS-CoV-2/human/Germany/BavPat 1/2020) on pseudovirus or live virus (SARS-CoV-2, UniProt P0DTC2 14-1273); test: cell-based or functional assay
[5] = molecular target: Spike protein of the U.K. (B.1.1.7, Alpha) variant on pseudovirus or live virus (SARS-CoV-2, UniProt P0DTC2 14-1273); test: cell-based or functional assay
[6] = molecular target: T4, SARS-CoV-2 Spike RBD K417T, E484K, N501Y (SARS-CoV-2, UniProt P0DTC2 319-541); test: HTRF, EC50 of binding, soluble RBD construct
T4 construct: domain: RBD; also called Brazilian (K417T, E484K, N501Y)

[7] = molecular target: T5, SARS-CoV-2 Spike-RBD Omicron variant (SARS-CoV-2, UniProt P0DTC2 319-541); test: HTRF binding assay on soluble Spike-RBD B.1.1.529; % binding relative to Ref
T5 construct: domain: RBD; also called soluble RBD domain of the Spike protein containing mutations found in the Omicron variant

[8] = molecular target: T4, SARS-CoV-2 Spike RBD K417T, E484K, N501Y; test: HTRF, soluble RBD construct
[9] = molecular target: T6, SARS-CoV-2 Spike RBD K417N, E484K, N501Y (SARS-CoV-2, UniProt P0DTC2 319-541); test: HTRF, soluble RBD construct
T6 construct: domain: RBD; also called S. African partial (K417N, E484K, N501Y)

Row | Binder | fold over background [1] [fold over background] | fold over background [2] [fold over background] | fold over background [3] [fold over background] | IC50, neutralization of live virus in a virus internalization assay [4] [nM] | IC80, neutralization of live virus in a virus internalization assay [4] [nM] | IC90, neutralization of live virus in a virus internalization assay [4] [nM] | IC50, neutralization of live virus in a virus internalization assay [5] [nM] | IC80, neutralization of live virus in a virus internalization assay [5] [nM] | IC90, neutralization of live virus in a virus internalization assay [5] [nM] | binding result [6] | binding result [7] | EC50 [8] [nM] | EC50 [9] [nM]
1 | B1 | 3.91 | 8.47 | 8.18 | 0.35 | 1.43 | 3.06 | 2.66 | 13.7 | > 394 | no binding | no binding | – | –
2 | B2 | 5.92 | 6.64 | 7 | 39.4 | 151 | 289 | 1.38 | 61.1 | 219 | – | – | 0.0236 | 0.0197
3 | B3 | 4.15 | 5.43 | 5.61 | 33.8 | 126 | 236 | 43.3 | > 394 | > 394 | – | – | 0.0183 | 0.0145
